Test results: publication PMC6127144

Molecular target: human plasma membrane Ca2+-ATPase 1, full-length human PMCA1d (human) (UniProt P20020)
Chain of UniProt P20020 (P20020 other isoform, or with tags, fused parts or gaps): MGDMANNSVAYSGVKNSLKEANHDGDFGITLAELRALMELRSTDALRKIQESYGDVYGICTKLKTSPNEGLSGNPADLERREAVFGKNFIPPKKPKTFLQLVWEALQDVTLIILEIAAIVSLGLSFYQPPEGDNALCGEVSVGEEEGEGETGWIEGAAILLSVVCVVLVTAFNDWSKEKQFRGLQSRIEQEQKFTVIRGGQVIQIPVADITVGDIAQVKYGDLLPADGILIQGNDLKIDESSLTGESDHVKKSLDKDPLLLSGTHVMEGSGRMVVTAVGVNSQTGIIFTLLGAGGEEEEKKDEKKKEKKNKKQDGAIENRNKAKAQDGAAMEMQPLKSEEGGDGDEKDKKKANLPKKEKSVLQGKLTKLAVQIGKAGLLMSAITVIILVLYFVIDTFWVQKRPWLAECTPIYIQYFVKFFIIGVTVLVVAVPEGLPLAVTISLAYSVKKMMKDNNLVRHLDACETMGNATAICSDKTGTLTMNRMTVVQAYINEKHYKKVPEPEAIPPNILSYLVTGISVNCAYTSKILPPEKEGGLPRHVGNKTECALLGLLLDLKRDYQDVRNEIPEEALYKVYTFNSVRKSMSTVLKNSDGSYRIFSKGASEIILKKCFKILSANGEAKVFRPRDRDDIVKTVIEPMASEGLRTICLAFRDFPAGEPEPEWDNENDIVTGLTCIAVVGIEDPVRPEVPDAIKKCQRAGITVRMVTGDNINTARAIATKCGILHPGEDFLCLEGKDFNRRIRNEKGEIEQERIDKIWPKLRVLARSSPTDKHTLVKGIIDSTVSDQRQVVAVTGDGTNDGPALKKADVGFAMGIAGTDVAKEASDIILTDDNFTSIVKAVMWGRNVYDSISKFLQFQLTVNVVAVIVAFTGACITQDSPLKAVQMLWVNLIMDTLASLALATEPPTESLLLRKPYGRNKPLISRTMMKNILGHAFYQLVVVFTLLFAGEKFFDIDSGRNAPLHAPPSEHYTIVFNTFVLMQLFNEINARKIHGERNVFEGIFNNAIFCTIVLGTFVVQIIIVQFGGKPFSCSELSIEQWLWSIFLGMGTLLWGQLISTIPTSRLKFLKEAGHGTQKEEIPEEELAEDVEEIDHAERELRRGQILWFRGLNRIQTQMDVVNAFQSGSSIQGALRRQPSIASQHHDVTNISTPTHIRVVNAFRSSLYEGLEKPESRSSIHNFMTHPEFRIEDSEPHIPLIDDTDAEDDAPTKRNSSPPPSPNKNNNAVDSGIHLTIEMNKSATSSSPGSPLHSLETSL

Vmax of the ATPase activity of purified hPMCA1-NPTN proteins (nmol mg^-1 min^-1): 326
Substance: neuroplastin (natural protein)
